Molecular target: T1, GFP (non-modified EGFP) (UniProt P42212 1-238 = GFP)
T1 construct: also called GFP alone; original GFP
Assay: affinity chromatography on Ni-NTA-bound PDZ, Western blot with anti-GFP
Excerpt: To carry out the affinity chromatography assay, bacterially-expressed PDZ domains and EGFP derivatives were produced and fused to the different target peptides. The original and modified PDZ domains were expressed in E. coli XL1-Blue as fusions with 6XHis. The EGFP-peptides fusions were expressed in E. coli BL21 as described in Sambrook et al, 1989, Molecular Cloning: A Laboratory Manual, 2nd Ed., Vol 3. The bacterially expressed PDZ domains were then bound to nickel resin (Ni-NTA agarose, Quiagen) as described by the manufacturer. The resin-bound PDZ domains were then incubated with E.coli extracts made from bacteria expressing each of the target peptide-GFP fusions and washed four times with 50 mM NaH₂PO₄, 300 mM NaCl; 20 mM Imidazole; 0,1% of TritonX-100 to remove any unbound proteins. The bound proteins were eluted using 50 mM NaH₂PO₄, 300 mM NaCl; 200 mM Imidazole and analyzed by Western blot using antibodies against GFP to determine the presence of EGFP fused to the target peptide.

B1: PDZ-3, third PDZ domain of mouse PSD-95 (amino acids 302-402) fused to polyhistidine (6XHis), from plasmid pQEPDZ-3 (other)
chain: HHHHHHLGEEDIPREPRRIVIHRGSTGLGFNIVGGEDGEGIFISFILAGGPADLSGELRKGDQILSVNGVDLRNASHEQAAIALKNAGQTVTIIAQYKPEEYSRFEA
notes: range 302-402; also called original PDZ domain; the original PDZ
B1: no binding.

From patent publication US20030059827A1 (published 2003)
